In patent publication US20060045884A1 (BOARD OF REGENTS, published 2006):

Tests used:
[1] = target: T1, HLA-A2.1 heavy chain with I125-labeled β2-microglobulin (heterotrimer dissociation assay) (human, I^125-labeled); assay: 125I-β2-microglobulin dissociation from the heterotrimer, gel filtration
T1 construct: The complex is isolated by HPLC gel filtration; T1/2 is the half-time of β2m dissociation from the complex that holds the tested peptide; also called heterotrimer complex of the HLA-A2.1 heavy chain, peptide, and β2-microglobulin

[2] = target: T2, HLA-A2.1 (HLA-A*0201) with β2-microglobulin on the surface of T2 cells (human); assay: T2 cell HLA-A2.1 stabilisation, flow cytometry (FIG. 34)
T2 construct: also called surface HLA-A2.1 on T2

[3] = target: T1, HLA-A2.1 heavy chain with I125-labeled …; assay: dissociation of 125I-β2-microglobulin from the HLA-A2.1/peptide/β2m heterotrimer, HPLC gel filtration
[4] = target: T2, HLA-A2.1 (HLA-A*0201) with …; assay: peptide-binding assay, HLA-A2 stabilisation on T2 cells; reference peptide PR1

Binder	binding result [1]	binding result [2]	T1/2 [3] [h]	FI ratio to PR1 (stabilisation of HLA-A2 on T2 cells) [4] [ratio]
SLWRRPFNV [MY1 peptide (myeloperoxidase derived)]	binds	binds		
KLLLALAGL [MY2 peptide (myeloperoxidase derived)]	binds	binds		
VLQELNVTV (Synthetic peptide, at least 95% pure) [PR1 peptide (proteinase 3 aa 169-177)]			24.3	
LLSYFKQPV [MY3 peptide (myeloperoxidase derived)]	binds	binds		
RLFEQVMRI [MY4 peptide (myeloperoxidase derived)]	binds	binds		
LIQPFMFRL [MY5 peptide (myeloperoxidase derived)]	binds	binds		
ILLDWLMEV (also called cyclin E1 peptide) [CCNE1144-152 (cyclin E1 derived nonameric peptide)]				1.01
ILLDWLLEV (also called cyclin E2 peptide) [CCNE2144-152 (cyclin E2 derived nonameric peptide)]				1.19
RLFPDFFTRV (Synthetic peptide) [PR2 peptide (proteinase 3 derived)]			2.33	
